Source: patent US20090304667A1 (POSTECH ACADEMY INDUSTRY, published 2009)

Target: T1, PLD2^wt (Homo sapiens, UniProt O14939 1-933)
T1 construct: Ectopically expressed in COS7 or HEK293 cells from a mammalian expression vector; used as cell lysate; also called phospholipase D2
Assay: GST pull-down with PLD2-expressing cell lysates

T1 sequence (O14939 whole entry R172C/T577I): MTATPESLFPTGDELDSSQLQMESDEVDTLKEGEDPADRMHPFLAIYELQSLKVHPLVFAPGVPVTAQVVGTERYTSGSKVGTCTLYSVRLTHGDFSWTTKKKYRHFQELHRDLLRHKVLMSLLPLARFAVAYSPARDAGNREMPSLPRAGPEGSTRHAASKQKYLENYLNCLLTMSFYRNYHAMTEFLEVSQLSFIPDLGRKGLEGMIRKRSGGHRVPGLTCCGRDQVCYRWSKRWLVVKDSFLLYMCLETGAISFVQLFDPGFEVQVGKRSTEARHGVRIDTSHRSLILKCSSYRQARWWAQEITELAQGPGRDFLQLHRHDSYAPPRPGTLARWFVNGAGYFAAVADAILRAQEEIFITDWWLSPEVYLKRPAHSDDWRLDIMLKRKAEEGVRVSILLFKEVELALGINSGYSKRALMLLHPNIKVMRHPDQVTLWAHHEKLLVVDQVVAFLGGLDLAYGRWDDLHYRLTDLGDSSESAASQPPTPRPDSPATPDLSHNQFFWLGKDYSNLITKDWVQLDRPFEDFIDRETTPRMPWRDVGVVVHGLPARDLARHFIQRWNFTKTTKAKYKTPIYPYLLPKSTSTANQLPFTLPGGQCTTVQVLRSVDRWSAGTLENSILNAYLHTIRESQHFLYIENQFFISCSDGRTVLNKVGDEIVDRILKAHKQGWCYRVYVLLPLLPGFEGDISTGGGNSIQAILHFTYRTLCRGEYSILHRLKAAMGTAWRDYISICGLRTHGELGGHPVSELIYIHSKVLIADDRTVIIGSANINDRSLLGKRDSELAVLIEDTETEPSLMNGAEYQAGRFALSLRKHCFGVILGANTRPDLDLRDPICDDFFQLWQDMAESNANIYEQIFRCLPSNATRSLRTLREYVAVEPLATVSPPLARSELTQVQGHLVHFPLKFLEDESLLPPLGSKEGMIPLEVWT

B1: GST-R-Ras (other, UniProt P10301 1-218, looked up)
chain: MSSGAASGTGRGRPRGGGPGPGDPPPSETHKLVVVGGGGVGKSALTIQFIQSYFVSDYDPTIEDSYTKICSVDGIPARLDILDTAGQEEFGAMREQYMRAGHGFLLVFAINDRQSFNEVGKLFTQILRVKDRDDFPVVLVGNKADLESQRQVPRSEASAFGASHHVAYFEASAKLRLNVDEAFEQLVRAVRKYQEQELPPSPPSAPRKKGGGCPCVLL
notes: Expressed in E. coli, on glutathione-Sepharose beads; also called GST-Ras; not shown: GST tag
binding result: no binding
